According to patent US20030078370:

How the values were obtained:
[1] = system: GFP protein fused to human cyclin E2 splice variant [GFP: P42212]
[2] = system: GFP protein fused to full length human cyclin E2 [GFP: P42212]

hemagluttinin-tagged human cdk2
phosphorylation of histone H1 (kinase assay with 32P-ATP, autorad) [1]: cannot phosphorylate histone H1 | phosphorylation of histone H1 (kinase assay with 32P-ATP, autorad) [2]: can phosphorylate histone H1
